In article PMC10933793 one finds PL^pro-catalysed isopeptide amide bond hydrolysis by SPE-MS, time course to ~240 min (0.2 uM PL^pro, 2.0 uM peptide, 50 mM Tris pH 8.0, ambient temperature) data, which are given here for one molecule.

The target in the test is PL^pro domain of SARS-CoV-2 nsp3 (E746-T1063) (SARS-CoV-2).

Ends that are not written are not given here.

B1: K193-branched IRF3_(189-197)-ISG15 oligopeptide 4 (peptide)
chain 1: ENPLKRLLV-NH2
chain 2: LSTVFMNLRLRGG
modifications: also: lactam at chain A 5 at chain B 13 to a chain's C-terminus
On to B1, for which the PL^pro-catalysed isopeptide amide bond hydrolysis by SPE-MS, time course to ~240 min (0.2 uM PL^pro, 2.0 uM peptide, 50 mM Tris pH 8.0, ambient temperature) worked out at 20%.
